Data on 14 sequences can be found in a protein production outcome set (Wang et al. 2014).

This series is described as follows: label from the status in PepcDB records.
As for “MPKVEIAPSEIKIPDNVLKAKLGFGGAEEIPEEFRKTVNRAYEELLDAAKPVVLWRDFEVDGSLSFDDMRLTGELATKHLSGSKIITVFLATLGKKVDEKIEEYFRKGEDLLAFFIDGIASEMVEYALRKVDAELRMKRSNLEGSFRISPGYGDLPLSLNKKIAEIFKEEVDVNVIEDSYVLVPRKTITAFVGWREKNEKQT”, the protein production result is “not failed”.

“SKSTKNDVKITALSTSESQIISHMLRLLIEHDTHGKIKPTLVNNLGSSTIQHNALINGDANISGVRYNGTDLTGALKEAPIKDPKKAMIATQQGFKKKFDQTFFDSYGFANTYAFMVTKETAKKYHLETVSDLAKHSKDLRLGMDSSWMNRKGDGYEGFKKEYGFDFGTVRPMQIGLVYDALNTEKLDVALGYSTDGRIAAYDLKVLKDDKQFFPPYAASAVATNELLRQHPELKTTINKLTGKISTSEMQRLNYEADGKGKEPAVVAEEFLKKHHYFD”: the protein production result is “not failed”.

Regarding “MLKKIDDSESLLDTAALAPLQRFVERECRLLDEQRFEEWLALYLPEATYWAPATRDNPDPDSQVSLFWDDKETMQTRVQRLLHPEIHSQIPASVTVRLTSNFRAAVAPGGEKDAYQVECRFIMVEDRLGSPRQQFAGTFNYLLVQNGAAFRIRQKRVDLTNCDHAFHTLTQPF”, the protein production entry is recorded as “not failed”.

For the sequence “MQLAINKIYRRIFISMDTGVSDHGIEIIGVDPIPGTSRIMGPWKMTVFWSMASASALTPLIGYLLYPLGLIDMLIAISIAFLIGFVPVGIFSEMGRTIPVPAMIISRKTLGYASSSVMSLIFTFVNLGWFGLNDITGGLILASVTSSSPIIWISFMAIVQIMLVLFGAKYLEKFYRYTAILLVFSYGILTYLLFRVYRPDMYAVLHPSTAVNWGSAIGLVLAFSILAWAYKVSTISRFARKREAGEPALERSGFFMAPSIGIIVPVYVMGSLGLISEAAAENWNLAAVRFSGLGSIGGAVAIIASIGASLAIIHTNSMNLYPATADLLSAIEGLFNKRLRKFAQPISTAILGTLGAVLAYAGILNYASGFLNLSGSIIFPFTFVLIADWFMMNRHSANSADFYSIPKNGLGNVNLAGISGLIVGVILNLIHINLLNALFLYVPQDIFGSLAGTAVFILVLKAVQKKQAAQEENRSDTVAE”, the protein production entry is recorded as “failed”.

With “MPMDFQILDADYEVVNDSGPVIRLFGRGADGKSVCCFVPDFEPYFYLKASGDLHAVARLIKDTFEQVKKVEIVEKFEPVGYQKTKKEMLRVTTRLPKDVPEIRDEILKIRDVLRAEGDWQVYESDILFRNRFLIDRALGGMVWVSAEGKPVDPVRYLGAGSAWRSRCENFACDSAVLASGLKRVENLAIAPLKYLAFDIECLPLDGGMPSPDVSPIIMISFSFEPEYKGHKTLILLAKPAAGMDGDVLSCMDETEMLNKFFEIICEYDPDIVAGYNHQDFDIPYITERVKALVAKGETINSVVGRDGSPIGYRKFGLITRTEMKGRVVVDALPLVRRAFSLKQYTLRAVSKELLSREKLDVPPLEMEEHWNDSGDKFRKFVDYARRDSELALELVLELRLLDKYIALAQVSGSLLQEIVDGGQTSMVETLLLREFGLKDRVILPKPGDELSAERYDMSSDLKGGEVLEPKKGLLENVLILDYKSLYPTIMMAHNLCYTTVVTRDRPDGKTIKPPSGGEFVPPEVFRGIVPSILEDLLNKRGDTKKRMKRTSDENEHRVLDATQLAIKILLNSFYGYSGYARARLYSLTLANAVTSFGRSNILNTRDLINGRIGKIVLRNSAALLLEEAGKLSPQDRIVELSVAYGDTDSVFVHCKAKGDLSLEEVSLVGNRLSEIVSASLPDPMELEFESVAKRALLIAKKRYALWLFEPRNSGWENKIKVKGMETVRRDWCELTSITLNRVLEFVLIEGDVDKAVEHVRKVVSDVRNLDPGKDAGIIEKLVLTRTLTRKADSYKNKQPHLTVAENLKKRTGIMPSIGTRIPFVITAGKGLFVDRAEDPDYVRENNVPIDVDYYVKKQILPPVERILEVFGVKMSSLDFDAKQKGLFDFEVKKPEAKKQEKSSSQKGTNGKILEKAPEEKARYSENGRVEQRSLFDF”, the protein production entry is reported as “failed”.

“MGALRGRWAEEEALRFLLGKGYRLLWRNRRTPFGEVDLFMEKDGVYVVVEVKQRASARFGAPLEAITPGKVRRLLQSARFLLGRDDLPVRLEAVLVHGTPKDFRLEHLVLEL”: the protein production result is “failed”.

Regarding “PDMDPRCPARADPRKLHDAIARFGVNHLFGSPALLRVLAEYGKPLPTLRCVTSAGAPVPPYVVAQIRALLSDEAQFLTPYGATECLPIAVIESRE”, the protein production result is reported as “failed”.

Turning to “MFENTLVVIKGAGDIATGVGRRLFRCGFPLVMTEQLQPTPVRRTVAFAEAVYKGETTVEGVTARLIEDPAHVYSTLREGHIPIIPDPEAHIIRVLNPKVVVDAILAKKNLGTAKSNAPIVIGLGPGFTAGKDVHAVIETNRGHNLGRVILNGSAEPNTGVPGVVNGYGSERVLRSPADGAIVPIREIGDFLLKGDVIAVVEGEPVVAPFDGTLRGLVHEKVTVFKGMKIGDVDPRASREHCYTISDKALAISGGVLEAILSHRHVITE”, the protein production entry is “failed”.

Consider “MPKVTVSIKVVPAVEDGRLHEVIDRAIEKISSWGMKYEVGPSNTTVEGEFEEIMDRVKELARYLEQFAKRFVLQLDIDYKAGGITIEEKVSKYR”, for which the protein production entry was “not failed”.

In the case of “MDEQEFRKQLTLKPVEEEHIDQFNELLSYVFQVTEADIEESGFENKRAFIKSKQPILELSKVFGWFHENQLISQIAIYPCEVNIHGALYKMGGVTGVGTYPEYANHGLMKDLIQTALEEMRQDKQWISYLFPYNIPYYRRKGWEIMSDKLSFKIRDTQLPKTVPVPGMIERLAVDHPDVFDVYARFARQNHGALIRSAFNWEEYWRFENEEERTAAVYYGANQEPLGVLFYWVADEVFHIKEMFYLNQEARNGLWNFITAHFSMVYWVKGDIYKNEPLAFLLEDSQIKESIEPYYMARIVDVKAFLENFPFESTAKPFHFVVKDPVAEWNNGIFGLIWDENDQVTITDEPLGTAVHLDIQTLTCLVMNYRRPSYLHRIERIDTDKETLNSLERIFPDQEAYFSDYF”, the protein production result is “not failed”.

On to “AIAASALEQFVNNVRQLSAQGQMTQLCELINKSGELLAKNLSHLDTVLGALDIQEHSLGVLAVLFVKFSMPNIPDFETLFSQVQLFISTCNGEHIRYATDTFAGLCHQLTNALVERKQPLRGISILKQAIDKMQMNTNQLTSVHADLCQLCLLAKCFKPAVPFLELDMMDICKENGAYDAKHFLCYYYYGGMIYTGLKNFERALYFFEQAITTPAMAVSHIMLEAYKKYILVSLILHGKVQQLPKYTSQIVGRFIKPLSNAYHELAQIYATNNPAELRALVNKHSETFTRDNNSGLVKQCLSSLYKKNIQRLTKTFLTLSLQDMASRVQLSGPQEAEKYVLHMIEDGEIYASINQKDGMVCFHDNPEKYNNPAMLHKIDQEML”, for which the protein production result was “not failed”.

In the case of “MDSEAQQISLLIGKEDRYGRVEVNLMEVEPMNAEDFNAKLDVSFKAWKDQGKKGIWIKLPCELSSLVDIAMKKGFTYHHAENEYAVLSSWISDLPNTIPANASHRIGIGALVLNKNREVLAVQEIDGVFKDTGLWKLPTGVIQENRENFRYMANICLKRSQEKEYLGFSNVLTKNSTGKESYLYCSTDHAYFLKGKPDHSSTSLFTTLLRKCFSI”, the protein production entry is reported as “failed”.

With “MDASDDSLIGRITEVRAGRFAARLLSDEEGFRNEVSLGDEVQHPGQVGTYVSIRNGTFRILALVREVSGGAAGSAAGSAMQLVPLGEFNDKGAFSRGVRRYPVPGAEVHAASPQEINAVFARTRNLRFNPGYLPNHPATGVYLDPSALCSRHFAILGQSGAGKSWTVASLLQRMLASAPRAHIILLDLHGEYCWRGADGVLHSTFPPMATRAMDARELEIPYWLMSFAELVDLLIERDDPAASIQTAFLRETVFELKRRSARELGLEGVSIDAPVYFSLQEVYERFKEANEHRTDFGKTKGPLFGQFDDFLLKLGSRLHDVRYDFLLNPARRTRSESLPDLLRDFVGLGEPRCQISVIDLSPVPFDVRPTVSAQIGRLAFEFNYWNLDRREFPILLVCEEAHTYIPRERATQYEGTRKSMERIAKEGRKYGVGLAVVSQRPHELSETVLSQCGSYICLRISNPDDQAYVRKLVPEGEADLVDVLTALGRGEALILGEATPLPVRCQIFRPDPPPNSNDVDFHKAWNADTANLDIGAIVRRWWNQGR”, the protein production result is “failed”.

On to “MDRLPILKLGDCLLVTIQVELHDRLALTLQDDLTTMIANTGARGVLIDISALDIVDSFIARVLGNIAAMSRVLGAETMVVGMQPAVAITLVELGVTWQHMHTALSVERGLERLKVLIAERHTLRGHSPRGKRGGGVDGSRH”, for which the protein production entry was “failed”.
